± gives the standard deviation of the averaged measurements.
test system: Saccharomyces cerevisiae; assay: protein stability index of tFT-peptide fusion (C-terminal peptide) (PSI (0-1 scale)); higher = more stable (slower turnover); conditions: genetic background: doa10 deletion; temperature: 30 C
Experimental: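 MPS profiling in S. cerevisiae of the tFT-X12 degron library: putative degron peptides plus stable controls, 12 aa, fused to the C-terminus of a sfGFP-mCherry timer. Cells are FACS-sorted into 8 mCherry/sfGFP bins and deep-sequenced. PSI runs from 0 (unstable) to 1 (stable). Backgrounds are wild type, das1Δ and doa10Δ at 30 °C, and wild type, das1Δ, cdc34-1 and cdc53-1 at 37 °C; 2-3 technical replicates each.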
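Further: PSI is a weighted mean of sequencing reads over stability bins, variants kept only with over 10 reads, mCherry proximal and sfGFP distal, peptide attached via GGGS linker.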

Point of comparison: LFCVCFYGRIFL, protein stability index 0.328 ± 0.018. Against it:
- KNGNVEILIKCT — higher, 0.377 ± 0.022
- KRNLLYNIIVWI — lower, 0.171 ± 0.0049
- KTSVLLCVSTSF — higher, 0.442 ± 0.046
- LAINVRRELLFF — lower, 0.134 ± 0.001
- LARRASCFWVRC — lower, 0.251 ± 0.019
- LAVVCIHAVSSF — within error, 0.333 ± 0.02
- LCAFLKLFILII — lower, 0.235 ± 0.027
- LCARVCITFNIV — higher, 0.4011 ± 0.004
- LCWLVHFFLWVS — lower, 0.253 ± 0.013
- LESYGLRDSTSG — higher, 0.65 ± 0.0099
- LFFCYRVFLLVF — lower, 0.121 ± 0.016
- LFFGFFLIYFLG — lower, 0.266 ± 0.014
- LFFVVFFLLFLL — higher, 0.389 ± 0.0099
- LFFWFMYLRRLI — lower, 0.22 ± 0.0085
- LFHSFFLYCLMS — higher, 0.5838 ± 0.0054
- LFIFYCFFFLVR — within error, 0.359 ± 0.029
- LFLEVCFFRLYF — higher, 0.46 ± 0.02
- LFLLFLCLSSLF — higher, 0.448 ± 0.016
- LFLLSVNLLLGY — lower, 0.105 ± 0.0095
- LFLPFLPTLALL — higher, 0.598 ± 0.021
- LFLYDFIALRCS — lower, 0.2104 ± 0.00034
- LFRGVWYYFLVR — higher, 0.504 ± 0.029
- LFSSFFVFRLLV — lower, 0.0949 ± 0.016
- LFVFVLAGFCCV — lower, 0.287 ± 0.0059
- LFVPVFSFGFVC — lower, 0.121 ± 0.02
- LFWWCMVFISLI — lower, 0.212 ± 0.017
- LFYVCPFVCFLC — within error, 0.307 ± 0.0078
- LGFFPSPVLCVF — lower, 0.171 ± 0.0087
- LGGVGTLVHCFV — within error, 0.351 ± 0.013
- LGRYHPWLLFLC — lower, 0.0687 ± 0.016
- LHSDHLRIILRI — higher, 0.382 ± 0.018
- LIAGTRRIPLFI — lower, 0.225 ± 0.0037
- LISGVCLRVKVG — lower, 0.16 ± 0.016
- LKFSLLLPVQVI — lower, 0.253 ± 0.0088
- LLGHLFTMLVIY — higher, 0.397 ± 0.0055
- LLLLRCLWISHA — lower, 0.125 ± 0.019
- LLPLLFFFLCLP — higher, 0.462 ± 0.006
- LLPSPLLLYSLS — higher, 0.3814 ± 0.0018
- LLRLCGFPLGVG — higher, 0.41 ± 0.014
- LLRLPLLALLFV — within error, 0.337 ± 0.02
- LLSAFPYLPVFA — lower, 0.2141 ± 0.00033
- LLVRSFIFPLVY — lower, 0.282 ± 0.016
- LLVVGPVRLVVH — lower, 0.168 ± 0.0078
- LLYPSKFCITAI — lower, 0.248 ± 0.007
- LLYYMPELLILT — lower, 0.242 ± 0.013
- LMLIPRLLVGAH — lower, 0.152 ± 0.008
- LPFFSFSPWWFY — lower, 0.209 ± 0.036
- LPIFWVWFSVFR — within error, 0.334 ± 0.027
- LPLHPHRSRYLV — lower, 0.101 ± 0.015
- LPPPTPRSVLLN — within error, 0.296 ± 0.019
- LPSPPSSPPLRP — higher, 0.5877 ± 0.0035
- LPSRWVPLPTPA — higher, 0.38 ± 0.016
- LPTLDCPLHRLF — higher, 0.674 ± 0.016
- LQCVYFVFFICF — lower, 0.235 ± 0.0054
- LQVPTLRLFVFF — lower, 0.197 ± 0.0017
- LRMSLLVFLLFA — lower, 0.249 ± 0.021
- LRQKIIYWWLWL — lower, 0.255 ± 0.011
- LRVLSVVRLSVW — higher, 0.382 ± 0.02
- LSARVFCFWFFS — lower, 0.187 ± 0.017
- LSFLCFSTVLHC — higher, 0.46 ± 0.022
- LSFLFFRLCSFF — lower, 0.157 ± 0.0029
- LSLLCFVASVVA — lower, 0.1585 ± 0.00028
- LSLVIFIFLYCR — lower, 0.27 ± 0.033
- LSLWPIFGIIYC — within error, 0.332 ± 0.011
- LSPPPLSFPFSA — higher, 0.643 ± 0.017
- LSVVVLVLCVLL — lower, 0.268 ± 0.023
- LVGYCGAWACVV — lower, 0.244 ± 0.011
- LVLCCGFWFRAV — lower, 0.27 ± 0.0049
- LVLGVEVCFVLG — lower, 0.147 ± 0.012
- LVPYLWWLVFAL — lower, 0.202 ± 0.011
- LVVFGLVLSLLL — higher, 0.356 ± 0.008
- LVVWASLVRVEG — lower, 0.2034 ± 0.00022
- LVWDLFRCFSML — lower, 0.23 ± 0.0054
- LVWSGLIVVVGG — lower, 0.176 ± 0.033
- LWAVGVATDWGG — higher, 0.694 ± 0.021
- LWERRSRQLTMF — lower, 0.173 ± 0.011
- LWGLVGVCLVLC — lower, 0.135 ± 0.0079

same assay, conditions: genetic background: wild type; temperature: 30 C

Point of comparison: LLPLLFFFLCLP, protein stability index 0.452 ± 0.02. Against it:
- KNGNVEILIKCT — within error, 0.425 ± 0.034
- KRNLLYNIIVWI — lower, 0.179 ± 0.016
- KTSVLLCVSTSF — within error, 0.443 ± 0.016
- LAINVRRELLFF — lower, 0.148 ± 0.032
- LARRASCFWVRC — lower, 0.303 ± 0.017
- LAVVCIHAVSSF — lower, 0.373 ± 0.042
- LCAFLKLFILII — lower, 0.141 ± 0.045
- LCARVCITFNIV — within error, 0.438 ± 0.035
- LCWLVHFFLWVS — lower, 0.238 ± 0.017
- LESYGLRDSTSG — higher, 0.681 ± 0.044
- LFCVCFYGRIFL — lower, 0.334 ± 0.022
- LFFCYRVFLLVF — lower, 0.106 ± 0.026
- LFFGFFLIYFLG — lower, 0.278 ± 0.018
- LFFVVFFLLFLL — lower, 0.337 ± 0.023
- LFFWFMYLRRLI — lower, 0.151 ± 0.01
- LFHSFFLYCLMS — higher, 0.541 ± 0.022
- LFIFYCFFFLVR — lower, 0.294 ± 0.0066
- LFLEVCFFRLYF — within error, 0.453 ± 0.032
- LFLLFLCLSSLF — within error, 0.436 ± 0.035
- LFLLSVNLLLGY — lower, 0.112 ± 0.04
- LFLPFLPTLALL — higher, 0.623 ± 0.022
- LFLYDFIALRCS — lower, 0.24 ± 0.024
- LFRGVWYYFLVR — within error, 0.438 ± 0.029
- LFSSFFVFRLLV — lower, 0.0904 ± 0.029
- LFVFVLAGFCCV — lower, 0.308 ± 0.039
- LFVPVFSFGFVC — lower, 0.145 ± 0.014
- LFWWCMVFISLI — lower, 0.231 ± 0.029
- LFYVCPFVCFLC — lower, 0.335 ± 0.026
- LGFFPSPVLCVF — lower, 0.193 ± 0.018
- LGGVGTLVHCFV — lower, 0.375 ± 0.014
- LGRYHPWLLFLC — lower, 0.0711 ± 0.025
- LHSDHLRIILRI — lower, 0.376 ± 0.0098
- LIAGTRRIPLFI — lower, 0.261 ± 0.053
- LISGVCLRVKVG — lower, 0.193 ± 0.015
- LKFSLLLPVQVI — lower, 0.283 ± 0.025
- LLGHLFTMLVIY — lower, 0.234 ± 0.019
- LLLLRCLWISHA — lower, 0.145 ± 0.026
- LLPSPLLLYSLS — lower, 0.412 ± 0.017
- LLRLCGFPLGVG — lower, 0.4004 ± 0.002
- LLRLPLLALLFV — lower, 0.222 ± 0.033
- LLSAFPYLPVFA — lower, 0.244 ± 0.022
- LLVRSFIFPLVY — lower, 0.289 ± 0.013
- LLVVGPVRLVVH — lower, 0.18 ± 0.026
- LLYPSKFCITAI — lower, 0.272 ± 0.027
- LLYYMPELLILT — lower, 0.199 ± 0.025
- LMLIPRLLVGAH — lower, 0.181 ± 0.018
- LPFFSFSPWWFY — lower, 0.24 ± 0.036
- LPIFWVWFSVFR — lower, 0.257 ± 0.034
- LPLHPHRSRYLV — lower, 0.0982 ± 0.0075
- LPPPTPRSVLLN — lower, 0.315 ± 0.04
- LPSPPSSPPLRP — higher, 0.599 ± 0.017
- LPSRWVPLPTPA — within error, 0.413 ± 0.022
- LPTLDCPLHRLF — higher, 0.654 ± 0.0035
- LQCVYFVFFICF — lower, 0.251 ± 0.015
- LQVPTLRLFVFF — lower, 0.224 ± 0.012
- LRMSLLVFLLFA — lower, 0.231 ± 0.025
- LRQKIIYWWLWL — lower, 0.245 ± 0.011
- LRVLSVVRLSVW — lower, 0.4 ± 0.025
- LSARVFCFWFFS — lower, 0.201 ± 0.011
- LSFLCFSTVLHC — within error, 0.462 ± 0.03
- LSFLFFRLCSFF — lower, 0.158 ± 0.017
- LSLLCFVASVVA — lower, 0.194 ± 0.021
- LSLVIFIFLYCR — lower, 0.169 ± 0.023
- LSLWPIFGIIYC — lower, 0.364 ± 0.019
- LSPPPLSFPFSA — higher, 0.666 ± 0.024
- LSVVVLVLCVLL — lower, 0.283 ± 0.023
- LVGYCGAWACVV — lower, 0.283 ± 0.027
- LVLCCGFWFRAV — lower, 0.286 ± 0.029
- LVLGVEVCFVLG — lower, 0.168 ± 0.032
- LVPYLWWLVFAL — lower, 0.143 ± 0.019
- LVVFGLVLSLLL — lower, 0.374 ± 0.022
- LVVWASLVRVEG — lower, 0.255 ± 0.02
- LVWDLFRCFSML — lower, 0.228 ± 0.021
- LVWSGLIVVVGG — lower, 0.195 ± 0.033
- LWAVGVATDWGG — higher, 0.689 ± 0.011
- LWERRSRQLTMF — lower, 0.166 ± 0.018
- LWGLVGVCLVLC — lower, 0.113 ± 0.016
